Substitutions are numbered along the chain they refer to.
How the values were obtained:
ParB (Spo0J) [1] = biological target: T1, ParB (Spo0J) (Bacillus subtilis 168, UniProt P26497 1-282); assay: SEC-MALS; 50 mM Hepes-KOH pH 7.5, 100 mM KCl, 2.5 mM MgCl2, 0.1 mg/ml BSA, 1 mM DTT, 20 nM DNA; EMSA also 2.5% Ficoll, room temperature 30 min then ice 5 min, gel at 4 C; conditions: protein: recombinant, tags: untagged, chain copies: 2, blunt
T1 sequence: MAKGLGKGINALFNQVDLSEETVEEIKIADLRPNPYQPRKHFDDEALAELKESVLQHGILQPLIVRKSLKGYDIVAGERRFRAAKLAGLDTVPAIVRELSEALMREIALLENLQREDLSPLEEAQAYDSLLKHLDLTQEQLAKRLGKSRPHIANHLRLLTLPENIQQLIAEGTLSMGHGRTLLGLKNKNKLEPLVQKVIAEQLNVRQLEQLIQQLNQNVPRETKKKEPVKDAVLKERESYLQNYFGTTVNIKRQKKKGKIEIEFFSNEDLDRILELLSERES

ParB (Spo0J) [2] = biological target: T1, ParB (Spo0J); assay: SEC-MALS; 9 uM ParB2, 10 uM DNA; 81.6 ± 1.9 kDa, one dimer per DNA; 50 mM Hepes-KOH pH 7.5, 100 mM KCl, 2.5 mM MgCl2, 0.1 mg/ml BSA, 1 mM DTT, 20 nM DNA; EMSA also 2.5% Ficoll, room temperature 30 min then ice 5 min, gel at 4 C; conditions: protein: recombinant; tags: untagged; chain copies: 2; label: 5'-Hex on forward strand; blunt
ParB (Spo0J) [3] = biological target: T1, ParB (Spo0J); assay: SEC-MALS; 80 uM ParB2; 50 mM Hepes-KOH pH 7.5, 100 mM KCl, 2.5 mM MgCl2, 0.1 mg/ml BSA, 1 mM DTT, 20 nM DNA; EMSA also 2.5% Ficoll, room temperature 30 min then ice 5 min, gel at 4 C; conditions: protein: recombinant; tags: untagged; chain copies: 2; label: 5'-Hex on forward strand; blunt
[4] = label: 5'-Hex on forward strand

B1: 50-bp parS (dsDNA)
DNA 1: CAGCAGTTGAATCAGAATGTTCCACGTGAAACAAAGAAAAAAGAACCTGT
DNA 2: ACAGGTTCTTTTTTCTTTGTTTCACGTGGAACATTCTGATTCAACTGCTG
B1: binds (ParB (Spo0J) [1]; label: 5'-Hex on forward strand (SEC-MALS)).

B2: 24-bp parS (dsDNA)
DNA 1: AGAATGTTCCACGTGAAACAAAGA
DNA 2: TCTTTGTTTCACGTGGAACATTCT
B2: binds (ParB (Spo0J) [2]).

B3: 24-bp non-specific (dsDNA)
DNA 1: AGAACGTGCCCAGGGAGACAAAGA
DNA 2: TCTTTGTCTCCCTGGGCACGTTCT
B3: binds (ParB (Spo0J) [3]).

B4: 100-bp parS (dsDNA)
DNA 1: TGTTCGCCAACTTGAGCAGCTGATTCAGCAGTTGAATCAGAATGTTCCACGTGAAACAAAGAAAAAAGAACCTGTGAAAGATGCGGTTCTAAAAGAACGG
DNA 2: CCGTTCTTTTAGAACCGCATCTTTCACAGGTTCTTTTTTCTTTGTTTCACGTGGAACATTCTGATTCAACTGCTGAATCAGCTGCTCAAGTTGGCGAACA
B4: binds (ParB (Spo0J) [1]; [4]).

B5: 100-bp non-specific (dsDNA)
DNA 1: B4 DNA 1 with T43C, T46G, A49C, C50A, T52G, A55G
DNA 2: B4 DNA 2 with T46C, A49C, G51T, T52G, A55C, A58G
B5: binds (ParB (Spo0J) [1]; [4]).

— article PMC4333373, “Specific and non-specific interactions of ParB with DNA: implications for chromosome segregation”
